In the supplement of paper PMC9170038:

Test system: MS2 coat protein
Test: apparent KD of MS2 coat protein; higher = weaker reporter binding
Conditions: Eterna round: R107
Outline: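 Apparent KD stands for the median, per design, of fits to normalised cluster binding curves. The curves came from titrating on-chip-transcribed RNA switches on Illumina sequencing clusters with SNAP-549-labelled MS2 coat protein, twofold from 0.7 or 1.5 nM to 3 µM. Buffer was 100 mM Tris-HCl pH 7.5, 80 mM KCl, 4 mM MgCl2, without or with constant ligand.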

[1] = input ligand: theophylline 20 uM
[2] = input ligand: theophylline 2 mM
[3] = input ligand: tryptophan 2.4 mM

Sequence	apparent KD of MS2 coat protein (input ligand: arginine 13.2 mM)	apparent KD of MS2 coat protein (input ligand: none)	apparent KD of MS2 coat protein [1]	apparent KD of MS2 coat protein [2]	apparent KD of MS2 coat protein [3]
CUCUCAUGAACAUGAGGAUCACCCAUGUAACGAGGACCGGUACGGCCGCCACUCGAACGUGGAUACCAAUCGAGUGGGUGAGAGA [Tryp A Ex t5]	31 nM	21.5 nM	25.2 nM	23.8 nM	80.1 nM
CUGCCAUGCAGAGAUACCAGUGCGCUCAGCACAUGAGGAUCACCCAUGUCGGCUGCCGAUCACCCUUGGCAGCUCUGCAUGGCAG [?@#$_]	12 nM	–	13 nM	–	11.3 nM
CUGGACAUGAGGAUCACCCAUGUAAAUCCUCGAGGACCGGUACGGCCGCCACUCGAACGAGUGGCACGCGAGUGCGCACUCGCGU [aLa]	26.9 nM	29.8 nM	45.6 nM	36.2 nM	33 nM
CUGGACAUGAGGAUCACCCAUGUAAAUCCUCGAGGACCGGUACGGCCGCCACUCGAACGAGUGGCGCGCGAGCGCGCGCUCGCGC [aJa]	41.4 nM	43.3 nM	80.3 nM	62.5 nM	45.5 nM
CUGUGUCCUUCGGCCGCCACUACAUGAGGAUCACCCAUGUCGUUACGGCUCCCAAUGACGCUUUGUAGGACCGGGAAGGAGUAUG [Tienancebe]	9.27 nM	–	15.9 nM	10.9 nM	–
CUUCAACAUGAGGAUCACCCAUGUAGUGAUACCAGUCACUCAUACGACCCUUGGCAGCACAUUUUCUGUCGGCAUGUAGACGAUC [theeternabot_sameState_MS2_Theo_A_33]	73.6 nM	–	172 nM	–	173 nM
CUUGGUAGAUCCUAGCUGCCAAGAGGUGAUACCAGCAUCGAAAGAUGCCCUUGGCAGCACCAACAUGAGGAUCACCCAUGUAAUA [(MT)''-(M)'-(T')-(Theo)-(Ms2)_Design1/22_4]	24.3 nM	–	178 nM	–	77.4 nM
CUUGUCGUAACUGAUACCAGUGUACUGACAUGAGGAUCACCCAUGUUGGGUUUUGUUGUACACCCUUGGCAGCAGAAUCGAUAAG [AstrosExyTheB#9]	68.8 nM	–	95.3 nM	–	71.3 nM
CUUGUGGUCGGAAGGAGCGCGAUUACAUAACAUGAGGAUCACCCAUGUAAGAAAUUAUUCAUGCAGGUAGGUCGCCGGUCGUGGG [Same State Arginine B GF10]	22 nM	21.4 nM	29.6 nM	22.6 nM	21.8 nM
CUUGUUUGUGGAAGGAGCGCGAUUACAUAACAUGAGGAUCACCCAUGUAAGAAAUUAUUCAUGCAGGUAGGUCGCCAUUGGUGGG [Same State Arginine B GF8]	64.1 nM	62.2 nM	53.1 nM	23.7 nM	30.6 nM
GAACAUAAGGAUAGUAUAAUAACUACAGAAGGAGCGUCAGGAAGGACAGGUAGGUCGCUGGAAGACAUGAGGAUCACCCAUGUUU [#03 Same State - Arginine A]	20.6 nM	21.4 nM	28.8 nM	21.1 nM	17.1 nM
GAACAUAAGGAUAGUAUAAUGACUACAGAAGGAGCGUCAGGAAGGACAGGUAGGUCGCUGGAAGACAUGAGGAUCACCCAUGUUU [Arg A SS t2]	25.6 nM	22.8 nM	35.3 nM	24.5 nM	19.4 nM
GAAGAGACCUCGGCCGCCACUCGCCAUGAGGAUCUCCCAUGUAACAUGAGGAUCACCCAUGUACAGAGGACCGGGAGGUCCUAGU [Same State Tryptophan B GF 14]	12.8 nM	21.2 nM	39.1 nM	24.8 nM	50.1 nM
GAAUAUUACAUGAGGAUCACCCAUGUAGAUACCAGCCUUGAUUGUGGCCCUUGGCAGCUACGCCGUGAAUGCCUCAGUUGCUUAC [Atidi]	36.8 nM	–	121 nM	–	72 nM
GAAUUUUAUUGAAGGAGCGUCGAAAAUGGGUAAACAUGAGGAUCACCCAUGUAAAGGGAACGACAGGUAGGUCGCAAUAGGAUUC [AstromonsSSArgB#28]	140 nM	177 nM	188 nM	247 nM	151 nM
GACAUGAGGAUCACCCAUGUACCGCGAGAAGGAGCGCGGAUAAACGCAGGUAGGUCGCUCGUGGGCUCACAUUCAAUCGUAAGCU [Azaesisma]	50.9 nM	98.6 nM	116 nM	165 nM	77.7 nM
GACAUGAGGAUCACCCAUGUGUAACCAGAAGGAGCGUGCGAAAGCACAGGUAGGUCGCUGGUGGGUUUAGGUUUAGUAGGUGUUC [SSAA NP+V+V2 #3]	87.6 nM	69.2 nM	100 nM	139 nM	56.4 nM
GACAUGAGGAUCACCCAUGUUUGCUAUGAAGGAGCGUCGGAAAUGACAGGUAGGUCGCAUAGUAGGCCUUGUAUUUUGUGUGUUU [EAA #8]	11.4 nM	10.1 nM	14.4 nM	10.8 nM	10.5 nM
GACGCAUGAGUUGGAACAGCUCAUGGGUCGCGAGGACCGGUACGGCCGCCACUCGGCUGUACAUGAGGAUCACCCAUGUCAGGGU [#1 Same State - Tryptophan A Attempt #30 (HarryS)]	72.7 nM	–	329 nM	942 nM	–

Sequence	apparent KD of MS2 coat protein (input ligand: arginine 13.2 mM)	apparent KD of MS2 coat protein (input ligand: none)	apparent KD of MS2 coat protein [1]	apparent KD of MS2 coat protein [2]	apparent KD of MS2 coat protein [3]
GAGACGUCGGGAAGGAGCGCAUCAAAACCACACAUGAGGAUCACCCAUGUAUAAAUAUGCAUGCAGGUAGGUCGCCCGGUGUCCA [SS-ArgB16]	24.2 nM	27.1 nM	33.6 nM	33.1 nM	29.1 nM
GAGCGCAGUUUACAACAUACUAACACAGAUACCAGAAAUUUUAUGUUCCCUUGGCAGCUGACAACAUGAGGAUCACCCAUGUGCU [theeternabot_exclusion_MS2_Theo_A_27]	17.5 nM	–	21.2 nM	–	15.7 nM
GAGCUGAUGUAGGGUGGAUAUCCUUGAGAUACCAGUACAGAAAUGUACCCUUGGCAGCUCUUCCUUACAUGAGGAUCACCCAUGU [Ex Theophylline A 25]	18.9 nM	–	23.5 nM	–	20.4 nM
GAGUAGAAGACGGCCGCCACUAAACAUGAGGAUCACCCAUGUCGUGAUCCGUUACCUAGAGUAGAUAGGACCGGGUCAUAUAGUC [Exclusion Tryptophan B GF 15]	27.5 nM	–	41.5 nM	30.2 nM	–
GAGUUCCUGAGAGAUACCAGUGAAGCCACAUGAGGAUCACCCAUGUCCCUCACUCCGGCCCACCCUUGGCAGCUCGAAAGAUGGA [Exclusion Theophylline B GF 21]	83.7 nM	105 nM	132 nM	403 nM	141 nM
GAGUUCCUGAGAGAUACCAGUGAGGCCACAUGAGGAUCACCCAUGUCCCUCACUCCGGCCCACCCUUGGCAGCUCGAAAGAUAUU [Exclusion Theophylline B GF 22]	11.3 nM	–	16.7 nM	–	12.1 nM
GAUACCAUGAUCCUCCUGGUAUCGGCUGAUACCAGCCAGCUGACUGGCCCUUGGCAGCAGCAUACAUGAGGAUCACCCAUGUUAA [(T)''-(M)'-(T)'-(Theo)-(Ms2)_Design4]	35.4 nM	–	163 nM	–	61 nM
GAUAGUUGAUGGGAUACCAGCCUACACAUGAGGAUCACCCAUGUGAUUCGUGUACGACUGGGCCCUUGGCAGCCCAUAUUGUGUA [#12 Same State - Theophylline B]	46.1 nM	–	202 nM	–	128 nM
GAUAUACGUGCGGCCGCCACUGAGUGGCGGGCGUGUCGAGUUACAUGAGGAUCACCCAUGUCACUCAGGACCGGGCACGGAAUUU [Soveri]	7.64 nM	–	14.1 nM	11 nM	–
GAUAUAUAACGAAGGAGCGGCCCUUGAUCCUCAUGAGACAUGAGGAUCACCCAUGUCUCGGGCCAGGUAGGUCGCGUUAUAUAUC [Astros-omei-mod]	26.6 nM	21.5 nM	31.4 nM	27.9 nM	24.4 nM
GAUAUGAUAAGAAGGAGCGUCGAAAAUGGGUAAACAUGAGGAUCACCCAUGUAAAGGGAACGACAGGUAGGUCGCUUAUUAUAUC [AstromonsSSArgB#19]	146 nM	160 nM	190 nM	251 nM	134 nM
GAUCGAAAUAACGUCUAGGAAAACUAGACGCGAGGACCGGUACGGCCGCCACUCGGGUGGCACAUGAGGAUCACCCAUGUAGAUC [#SwitchBubble 5 #GuTurnoff #MS2 3']	69.4 nM	–	110 nM	100 nM	–
GAUGAACUAUAUGAUACCAGACAACAUGAGGAUCACCCAUGUGAUAGUCGUCCUCUGCCUGUCCCUUGGCAGCGUAUAGUUUAUC [XTheo B #19]	30.7 nM	–	74.7 nM	–	21.2 nM
GAUGAACUAUAUGAUACCAGACAACAUGAGGAUCACCCAUGUGUAUGUCGUCCUCUGCCUGUCCCUUGGCAGCGUAUAGUUUAUC [XTheo B #17]	36.8 nM	–	70.1 nM	–	16.1 nM
GAUGAACUAUUUGAUACCAGACAACAUGAGGAUCACCCAUGUGCGCGUCGUCCUCUGCCUGUCCCUUGGCAGCGGAUAGUUUAUC [XTheo B #12]	32.5 nM	–	124 nM	–	34.9 nM
GAUGAUAUUGCAGAUACCAGACACAUGAGGAUCACCCAUGUCGUUGGGUCGCUGGGUCGUGUCCCUUGGCAGCUGCGAUAUCAUC [#04 Exclusion-TheophyllineB]	28 nM	–	52.6 nM	–	31 nM
GAUUAAACAUGAGGAUCACCCAUGUAUAUACGAGGACCGGUACGGCCGCCACUCGUAAACGAGUAUCCUCGAAUAAACAUGAUAA [AK 2.1 SS Trypt (A)]	44 nM	–	113 nM	182 nM	–
GAUUACAUGAGGAUCACCCAUGUAACUGAAGGAGCGGUAAUAAAGCCAGGUAGGUCGCGGAACAACAUGUGGAUCACCCAUGUAA [#13 Exclusion - Arginine A]	33.7 nM	43.5 nM	51.6 nM	43.7 nM	32.7 nM
GCACAAGAUGGAAGGAGCGCUGGUAAAAGUCACAUGAGGAUCACCCAUGUGCUCCUUGCCGAGCAGGUAGGUCGCCAUCUUGUGC [SSAB NP+V+V2 #4]	19.5 nM	27.8 nM	31.8 nM	33.2 nM	29.8 nM
